Experiments:
[1] = molecular target: gp41 Q66R (T2635-resistant HIV-1 strain) (HIV-1)
[2] = molecular target: gp41 N126K (T2635-resistant HIV-1 strain) (HIV-1)
[3] = molecular target: gp41 Q79E (T2635-resistant HIV-1 strain) (HIV-1)
[4] = molecular target: gp41 A6V (T2635-resistant HIV-1 strain) (HIV-1)
[5] = molecular target: gp41 H3C (T2635-resistant HIV-1 strain) (HIV-1)
[6] = molecular target: gp41 N113E (T2635-resistant HIV-1 strain) (HIV-1)
[7] = molecular target: gp41 of the wild-type virus of the T2635-resistant panel (HIV-1)
[8] = molecular target: gp41 K90E/N126K (T2635-resistant HIV-1 strain) (HIV-1)
[9] = molecular target: gp41 K154Q (T2635-resistant HIV-1 strain) (HIV-1)
[10] = molecular target: gp41 Q66R/N113E (T2635-resistant HIV-1 strain) (HIV-1)
[11] = molecular target: gp41 Q79E/N126K (T2635-resistant HIV-1 strain) (HIV-1)
[12] = molecular target: gp41 K90E (T2635-resistant HIV-1 strain) (HIV-1)
[13] = molecular target: gp41 of the WT virus of the T20-resistant panel (HIV-1)
[14] = molecular target: gp41 V38E, N42S (T20-resistant HIV-1 strain) (HIV-1)
[15] = molecular target: gp41 V38A, N42D (T20-resistant HIV-1 strain) (HIV-1)
[16] = molecular target: gp41 E49K (HP23-resistant HIV-1 strain) (HIV-1)
[17] = molecular target: gp41 L34S/D36G/E49K/E136G (HP23-resistant HIV-1 strain) (HIV-1)
[18] = molecular target: gp41 of the wild-type virus of the HP23-resistant panel (HIV-1)
[19] = molecular target: gp41 E49K/N126K (HP23-resistant HIV-1 strain) (HIV-1)
[20] = molecular target: gp41 D36G/E49K/N126K (HP23-resistant HIV-1 strain) (HIV-1)
[21] = molecular target: gp41 V38A (T20-resistant HIV-1 strain) (HIV-1)
[22] = molecular target: gp41 V38A, N42T (T20-resistant HIV-1 strain) (HIV-1)
[23] = molecular target: NHR peptide N46 (aa 536-581 of NHR) (HIV-1) (UniProt P04578); experiment: thermal denaturation followed by circular dichroism
[24] = molecular target: NHR peptide N46 (aa 536-581 of NHR) (HIV-1) (UniProt P04578); experiment: ELISA; inhibition of 6-HB formation between N46 and C34

Sequence of NHR peptide N46 (aa 536-581 of NHR) (HIV-1) (P04578 536-581): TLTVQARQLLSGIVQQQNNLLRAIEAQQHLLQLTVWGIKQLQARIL

HP23 (peptide) was tested, and the IC50, inhibition of HIV-1 infection (p24 ELISA), T2635-resistant panel, virus Q66R; blocks gp41 NHR-CHR 6-HB formation [1] was 2.8 nM, the IC50, inhibition of HIV-1 infection (p24 ELISA), T2635-resistant panel, virus N126K; blocks gp41 NHR-CHR 6-HB formation [2] was 8.6 nM and the IC50, inhibition of HIV-1 infection (p24 ELISA), T2635-resistant panel, virus Q79E; blocks gp41 NHR-CHR 6-HB formation [3] was 4.2 nM. The IC50, inhibition of HIV-1 infection (p24 ELISA), T2635-resistant panel, virus A6V; blocks gp41 NHR-CHR 6-HB formation [4] was 1.6 nM, the IC50, inhibition of HIV-1 infection (p24 ELISA), T2635-resistant panel, virus H3C; blocks gp41 NHR-CHR 6-HB formation [5] was 5.4 nM and the IC50, inhibition of HIV-1 infection (p24 ELISA), T2635-resistant panel, virus N113E; blocks gp41 NHR-CHR 6-HB formation [6] was 2.3 nM. For the same substance, the IC50, inhibition of HIV-1 infection (p24 ELISA), T2635-resistant panel, virus wild-type; blocks gp41 NHR-CHR 6-HB formation [7] was 2.8 nM, the IC50, inhibition of HIV-1 infection (p24 ELISA), T2635-resistant panel, virus K90E/N126K; blocks gp41 NHR-CHR 6-HB formation [8] was 4.2 nM and the IC50, inhibition of HIV-1 infection (p24 ELISA), T2635-resistant panel, virus K154Q; blocks gp41 NHR-CHR 6-HB formation [9] was 7.4 nM. For the same substance, the IC50, inhibition of HIV-1 infection (p24 ELISA), T2635-resistant panel, virus Q66R/N113E; blocks gp41 NHR-CHR 6-HB formation [10] was 3.6 nM, the IC50, inhibition of HIV-1 infection (p24 ELISA), T2635-resistant panel, virus Q79E/N126K; blocks gp41 NHR-CHR 6-HB formation [11] was 5.2 nM and the IC50, inhibition of HIV-1 infection (p24 ELISA), T2635-resistant panel, virus K90E; blocks gp41 NHR-CHR 6-HB formation [12] was 9.4 nM. For the same substance, the IC50, inhibition of HIV-1 infection (p24 ELISA), T20-resistant panel, virus WT; blocks gp41 NHR-CHR 6-HB formation [13] was 3.1 nM, the IC50, inhibition of HIV-1 infection (p24 ELISA), T20-resistant panel, virus V38E, N42S; blocks gp41 NHR-CHR 6-HB formation [14] was 6.2 nM and the IC50, inhibition of HIV-1 infection (p24 ELISA), T20-resistant panel, virus V38A, N42D; blocks gp41 NHR-CHR 6-HB formation [15] was 2.9 nM. For the same substance, the IC50, inhibition of HIV-1 infection (p24 ELISA), HP23-resistant panel, virus E49K; blocks gp41 NHR-CHR 6-HB formation [16] was 13.4 nM, the IC50, inhibition of HIV-1 infection (p24 ELISA), HP23-resistant panel, virus L34S/D36G/E49K/E136G; blocks gp41 NHR-CHR 6-HB formation [17] was > 60 nM and the IC50, inhibition of HIV-1 infection (p24 ELISA), HP23-resistant panel, virus wild-type; blocks gp41 NHR-CHR 6-HB formation [18] was 3.3 nM. The IC50, inhibition of HIV-1 infection (p24 ELISA), HP23-resistant panel, virus E49K/N126K; blocks gp41 NHR-CHR 6-HB formation [19] was 53.8 nM, the IC50, inhibition of HIV-1 infection (p24 ELISA), HP23-resistant panel, virus D36G/E49K/N126K; blocks gp41 NHR-CHR 6-HB formation [20] was > 60 nM and the IC50, inhibition of HIV-1 infection (p24 ELISA), T20-resistant panel, virus V38A; blocks gp41 NHR-CHR 6-HB formation [21] was 2.1 nM. It also gave an IC50, inhibition of HIV-1 infection (p24 ELISA), T20-resistant panel, virus V38A, N42T; blocks gp41 NHR-CHR 6-HB formation [22] of 1.5 nM and a Tm of the 6-HB formed with N46 [23] of 81 °C.

For HP23, the IC50 [24] was 3720 nM.

— PMC6150406, “Adding an Artificial Tail—Anchor to a Peptide-Based HIV-1 Fusion Inhibitor for Improvement of Its Potency and Resistance Profile” (Molecules : A Journal of Synthetic Chemistry and Natural …, 2017)
